Laboratory results as given in publication PMC8053096 (Nucleic Acids Research, 2021).

Target: the molecule itself
Assay: SEC

B1: full-length Escherichia coli Lhr (enzyme, Escherichia coli K-12 MG1655)
chain: SEFELRRQACMADNPDPSSLLPDVFSPATRDWFLRAFKQPTAVQPQTWHVAARSEHALVIAPTGSGKTLAAFLYALDRLFREGGEDTREAHKRKTSRILYISPIKALGTDVQRNLQIPLKGIADERRRRGETEVNLRVGIRTGDTPAQERSKLTRNPPDILITTPESLYLMLTSRARETLRGVETVIIDEVHAVAGSKRGAHLALSLERLDALLHTSAQRIGLSATVRSASDVAAFLGGDRPVTVVNPPAMRHPQIRIVVPVANMDDVSSVASGTGEDSHAGREGSIWPYIETGILDEVLRHRSTIVFTNSRGLAEKLTARLNELYAARLQRSPSIAVDAAHFESTSGATSNRVQSSDVFIARSHHGSVSKEQRAITEQALKSGELRCVVATSSLELGIDMGAVDLVIQVATPLSVASGLQRIGRAGHQVGGVSKGLFFPRTRRDLVDSAVIVECMFAGRLENLTPPHNPLDVLAQQTVAAAAMDALQVDEWYSRVRRAAPWKDLPRRVFDATLDMLSGRYPSGDFSAFRPKLVWNRETGILTARPGAQLLAVTSGGTIPDRGMYSVLLPEGEEKAGSRRVGELDEEMVYESRVNDIITLGATSWRIQQITRDQVIVTPAPGRSARLPFWRGEGNGRPAELGEMIGDFLHLLADGAFFSGTIPPWLAEENTIANIQGLIEEQRNATGIVPGSRHLVLERCRDEIGDWRIILHSPYGRRVHEPWAVAIAGRIHALWGADASVVASDDGIVARIPDTDGKLPDAAIFLFEPEKLLQIVREAVGSSALFAARFRECAARALLMPGRTPGHRTPLWQQRLRASQLLEIAQGYPDFPVILETLRECLQDVYDLPALERLMRRLNGGEIQISDVTTTTPSPFATSLLFGYVAEFMYQSDAPLAERRASVLSLDSELLRNLLGQVDPGELLDPQVIRQVEEELQRLAPGRRAKGEEGLFDLLRELGPMTVEDLAQRHTGSSEEVASYLENLLAVKRIFPAMISGQERLACMDDAARLRDALGVRLPESLPEIYLHRVSYPLRDLFLRYLRAHALVTAEQLAHEFSLGIAIVEEQLQQLREQGLVMNLQQDIWVSDEVFRRLRLRSLQAAREATRPVAATTYARLLLERQGVLPATDGSPALFASTSPGVYEGVDGVMRVIEQLAGVGLPASLWESQILPARVRDYSSEMLDELLATGAVIWSGQKKLGEDDGLVALHLQEYAAESFTPAEADQANRSALQQAIVAVLADGGAWFAQQISQRIRDKIGESVDLSALQEALWALVWQGVITSDIWAPLRALTRSSSNARTSTRRSHRARRGRPVYAQPVSPRVSYNTPNLAGRWSLLQVEPLNDTERMLALAENMLDRYGIISRQAVIAENIPGGFPSMQTLCRSMEDSGRIMRGRFVEGLGGAQFAERLTIDRLRDLATQATQTRHYTPVALSANDPANVWGNLLPWPAHPATLVPTRRAGALVVVSGGKLLLYLAQGGKKMLVWQEKEELLAPEVFHALTTALRREPRLRFTLTEVNDLPVRQTPMFTLLREAGFSSSPQGLDWG
- binding result: binds

B2: MsmLhr C-terminal domain, MsmLhr-(863-1507) (domain or fragment, Mycobacterium smegmatis, UniProt A0QT91 863-1507, looked up)
chain: SPLAERRAAALALDTVLLSELLGRVELRELLDPAVVASTSAQLQHLTPERAARDAEGVADLLRLLGPLTEADIAQRCTADNIGAWLDGLHAAKRALPVTYAGQTWWAAVEDIGLLRDGIGVPVPVGVPAAFTESASDPLGDLIGRYARTRGPFTTEQTAARFGLGVRVASDVLSRMAVDGRLIRGEFAADLSGEQWCDAQVLKILRRRSLAALRAQVEPVSTDAYARFLPSWQHVGSTNTTGIDGLATVIEQLAGVPIPASAVESLVFPQRVRDYQPAMLDELLASGEVMWSGAGQIGNGDGWVAFHLADTAPLTLTHGAEIEFTDTHRVILETLGHGGAYFFRQLTDGTVEGTAGQELKQALWELIWAGWVTGDTFAPVRAVLSGPRRSGAPAHRQRQRPPRLSRYSVAHAQTRGTDPTVSGRWSALPAAEPDSTVRAHFQAELLLGRHGVLTKGAVGAEGVPGGFATLYKVLSTFEDAGRCQRGYFVESLGGAQFAVASTVDRLRSYLDNVDPERPEYHAVVLAATDPANPYGAALGWPTDSEAHRPGRKAGALVALVDGRLVWFLERGGRSLLSFGADADAQRAAAGALTDLVSAGRIPSLLVERINGVAVLDPDVDAERAVVQDALLGAGLSRTPRGLRLR
- binding result: binds
